Measurements published in the supplement of paper PMC10724198.
± gives the standard deviation of the averaged measurements.

Test system: Saccharomyces cerevisiae
Assay: protein stability index of tFT-peptide fusion (C-terminal peptide) (PSI (0-1 scale)); higher = more stable (slower turnover)
Conditions: genetic background: wild type; temperature: 30 C
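Further: PSI is a weighted mean of sequencing reads over stability bins, variants kept only with over 10 reads, mCherry proximal and sfGFP distal, peptide attached via GGGS linker.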

Sequence	protein stability index
PFSLSLPPPPLP	0.73 ± 0.026
KSRVCSPSNEPS	0.7443 ± 0.0074
CIPCLLAYPETC	0.655 ± 0.14
VTLSYDTKWLWL	0.665 ± 0.07
CLEGCTIHTSGE	0.652 ± 0.015
GGGGIREERVRE	0.766 ± 0.19
NKNRKNQNKGKR	0.743 ± 0.069
CVREDSRPFPAS	0.76 ± 0.044
SPPSPASPPSSP	0.741 ± 0.075
INKKKKEKKKVE	0.731 ± 0.023
GVFGLMVGWGWG	0.671 ± 0.053
PPPPPPSPHPPL	0.709 ± 0.01
CKFPSLCVLSSV	0.654 ± 0.07
RRRREKWSVVHR	0.758 ± 0.0096
PPLPPPSVPPPC	0.716 ± 0.012
EGVAGEWRGMEM	0.65 ± 0.014
FHFFSFLSSVGF	0.6434 ± 0.0062
SSKGGWSGGGSV	0.71 ± 0.025
RHAVNAQPVARP	0.647 ± 0.036
FQGSDCLYFGLL	0.741 ± 0.043
EKDRAVGAAKAA	0.631 ± 0.12
FAFPQASHPVRI	0.664 ± 0.063
PVLSRLHSEVFL	0.73 ± 0.081
PPAEPLRLHAHA	0.709 ± 0.054
PPALRSPCPSHP	0.747 ± 0.14
GGVGWWWVRGMG	0.741 ± 0.029

Sequence	protein stability index
PPSSFHFVVPHP	0.684 ± 0.054
VVRWFGGGGVRG	0.719 ± 0.1
DKVKILVGVAGW	0.607 ± 0.036
CVGLIGVINGGL	0.558 ± 0.0081
PPPPRSPSLLSP	0.651 ± 0.059
SQRPPPLCDFTD	0.723 ± 0.013
FHFPHPFLPFPS	0.666 ± 0.12
SCYRSCGALLSA	0.694 ± 0.011
VGSSSRSLFWCF	0.689 ± 0.04
GLLQRCGAWRGS	0.656 ± 0.04
PRPPPPRPRSSP	0.667 ± 0.066
EWEKKKRGNTRK	0.642 ± 0.022
IFGMSGYVSIIL	0.671 ± 0.014
PCSSFPTFPRRL	0.715 ± 0.017
YKNKKKKKNNKK	0.661 ± 0.019
GTVDGILLVFVE	0.593 ± 0.026
SADGIVSQVTCL	0.693 ± 0.031
GRGVDGRSGCLL	0.6732 ± 0.0029
PSPLPGYFFTLS	0.627 ± 0.12
LPSPPPRPPHHR	0.672 ± 0.025
PPTPAPLSPPYV	0.712 ± 0.026
LPPPLPVRSPLF	0.68 ± 0.012
KDSSRHSPDPSR	0.715 ± 0.086
CWASTFGLGFLP	0.757 ± 0.0022
LLLLRSPPPTPP	0.6722 ± 0.0021
DGGVGGRAPRVR	0.744 ± 0.097

Sequence	protein stability index
GGPGVKRPAMDP	0.688 ± 0.0071
GGVSRSRNTRWN	0.677 ± 0.026
GGVGGLGTLCGG	0.661 ± 0.051
VEAFIVDETRVV	0.6984 ± 0.0064
GVGLGGVGFRGG	0.694 ± 0.098
GVQEGGGVARGG	0.639 ± 0.018
ILLSHRLQVSSC	0.564 ± 0.035
HIGSYTFILPSS	0.759 ± 0.064
PLWLPPTPMQII	0.62 ± 0.013
EAIGGVPASSRP	0.661 ± 0.0091
IRKLDIIFLSES	0.827 ± 0.063
VGAWRGVLVGGG	0.612 ± 0.0068
LEFMTENSCACV	0.652 ± 0.033
NIMSSFFLTFHR	0.719 ± 0.017
FMSGIVDLQRPL	0.691 ± 0.034
RDLGGECARQVG	0.7 ± 0.04
LEQNCYYGEFSS	0.665 ± 0.035
RAPTRDQCPCPG	0.68 ± 0.035
RRGAPSYATLAL	0.637 ± 0.0073
PLPEQIEATTAS	0.6921 ± 0.00086
VEVCLLRRWFGL	0.667 ± 0.055
GSVGSRIFLVHV	0.602 ± 0.086
RVDLPFDRSVSD	0.702 ± 0.057
LFLWRFPSPFRA	0.661 ± 0.036
KNKIRLLNKTSK	0.6717 ± 0.0014
SRPPSSQSNDEL	0.66 ± 0.078

Sequence	protein stability index
DKSEINKPTKGK	0.675 ± 0.021
KITKKNRSWKTS	0.623 ± 0.019
QKKKKNNKRQKQ	0.588 ± 0.023
YFWFSRGLSVFF	0.666 ± 0.0073
GRRTNLCERLAL	0.722 ± 0.042
PPLPLPPPHPPP	0.503 ± 0.047
GIFSGTDRNLVC	0.7075 ± 0.0069
FAWSPPACFIPS	0.654 ± 0.011
DPPLPAHPDVPP	0.771 ± 0.086
GEGALGLRENLQ	0.665 ± 0.021
EDRSITYNALIL	0.678 ± 0.013
PEKRDIQSGIVD	0.696 ± 0.024
HWPSPLSPAVPG	0.804 ± 0.084
THHSDLHPRTAP	0.697 ± 0.033
GMVRVRSIATHG	0.597 ± 0.034
CAAYIYLGGSFF	0.707 ± 0.033
GERGTRAERAGA	0.682 ± 0.032
SFLTPFLLSYAT	0.636 ± 0.0038
VSSAGAQHQVTH	0.667 ± 0.025
GVYWGEIDDVER	0.717 ± 0.015
CGQGRSVPFRSV	0.658 ± 0.0094
SPPHLPPPLLST	0.645 ± 0.06
RTDKETIKKIVE	0.72 ± 0.014
QFIGVGKVQRFG	0.59 ± 0.014
PPIFPSPPPPAD	0.61 ± 0.011
PSLLSHAPSPRR	0.682 ± 0.016

Sequence	protein stability index
RLYTNEMIRGSF	0.69 ± 0.04
GKPSEMSMREDS	0.704 ± 0.019
EATGSLISFCGW	0.665 ± 0.068
TRDATESLVERV	0.694 ± 0.02
WAAGLRVCRSVL	0.704 ± 0.052
GCRSFRNYKIGV	0.641 ± 0.018
FVLWFTSSGCSN	0.7598 ± 0.0039
QPPSCTSRPPYR	0.718 ± 0.096
LGVVSCAVVGFV	0.625 ± 0.041
MGDGRRMDGVWG	0.6 ± 0.03
RSSSPLPLLSLL	0.753 ± 0.053
ALGPPAPGPCRA	0.654 ± 0.021
PHRPSPPIPLSV	0.662 ± 0.043
FSFFVESFPASF	0.668 ± 0.036
PPAPLAPPPAGC	0.67 ± 0.038
EIGGYHLGWAKC	0.636 ± 0.022
KETQKKKQDKKK	0.703 ± 0.0091
HGPFLSNLLPDK	0.799 ± 0.085
LIGKNNTSIQLK	0.742 ± 0.16
KDKEQKKIKKSI	0.681 ± 0.13
PVSSPPRPAPSP	0.677 ± 0.025
HGLPSFANPGNF	0.716 ± 0.0095
SLDFTERHALAC	0.709 ± 0.031
KTFRTYRTYFRK	0.682 ± 0.023
SSRLALVLLPPG	0.649 ± 0.042
VACLVGVRGSWV	0.66683 ± 0.00048

Sequence	protein stability index
GVFWRGCGGCGG	0.685 ± 0.041
LQAALVFPRSSL	0.7225 ± 0.00052
SPSSLPPTLPTL	0.711 ± 0.021
GLGVCSPRFLVL	0.763 ± 0.15
IYRTYEAKPGHP	0.69 ± 0.12
RPVRYVLSGGCI	0.68 ± 0.012
SLLTSGSLTLFV	0.71 ± 0.037
GGGGGGSAVEGG	0.674 ± 0.066
CTSCHVWRLSRF	0.765 ± 0.034
VGDGAVGKTRGD	0.681 ± 0.039
KMGGKRTKKIGQ	0.694 ± 0.086
VTHDSACSSRLA	0.683 ± 0.019
RKDKKKKGSKEE	0.69 ± 0.046
KKEKKKQKRNNN	0.782 ± 0.013
SFRDSFVNFGVF	0.695 ± 0.045
RYHPRSHVLGRD	0.682 ± 0.063
GCEVRTFMNSSG	0.697 ± 0.016
GAVLELCRADGG	0.651 ± 0.0082
WGCGVRWGVDWA	0.732 ± 0.026
IKKYNEKRITKV	0.66 ± 0.045
KIDKKNKKKKRN	0.728 ± 0.023
PRSSPEPTCQDP	0.647 ± 0.099
PSPPPPPPTTVL	0.718 ± 0.021
RGGPTRVSLPPR	0.654 ± 0.016
YYLPRPPRPTVL	0.623 ± 0.11
ERIGVEERKGLE	0.658 ± 0.021

Sequence	protein stability index
RSRLSEAEEYGR	0.71 ± 0.0072
KKKKKKKKKNKK	0.679 ± 0.048
SFVLKAFLTRAV	0.765 ± 0.23
GGGARCGWGGRM	0.7 ± 0.011
AGAWVREVVGWG	0.707 ± 0.014
PPILLAYITPPM	0.656 ± 0.0076
ALRPLLGRDHKV	0.68 ± 0.042
APPPAPPPPPQT	0.662 ± 0.0089
GIGLVIEDKLLL	0.683 ± 0.042
PSSPPPPSATPP	0.701 ± 0.091
PPLPFARAPHCP	0.732 ± 0.059
FPRPPSVLACRP	0.645 ± 0.088
VTPVPFRTMMST	0.571
IFVTLGWARMRY	0.647 ± 0.065
GLLDGEILKRRI	0.6978 ± 0.0053
GSRGGPGGEAAG	0.652 ± 0.019
RRLEPGVAWFPT	0.661 ± 0.01
VGPWQVQRLLWT	0.623 ± 0.056
ISSKREITGSVA	0.694 ± 0.012
GGVGWGMVEGWR	0.685 ± 0.057
GVGGFPSRLVGG	0.69 ± 0.043
PPLSSPPSLSPP	0.703 ± 0.049
GCPGGGRPGPRA	0.7052 ± 0.0064
VLLLLPASTPSL	0.696 ± 0.079
LLRPLSPIDVLR	0.702 ± 0.069
AGGGLGGVGDVV	0.681 ± 0.052

Sequence	protein stability index
RQLGELASARWL	0.709 ± 0.025
VAPPVLCRCSLR	0.6481 ± 0.0052
LALSRVALFSHS	0.679 ± 0.042
RVEADMKKRWTG	0.716 ± 0.028
GIYCSFSCKPCP	0.6699 ± 0.0042
EKRDEGAGKGEQ	0.63 ± 0.014
GQPGDCWRVCPR	0.6851 ± 0.0027
PPPLPLLPSSPL	0.685 ± 0.013
FRDPPSILTSDT	0.621 ± 0.017
PPDAPPMPPPQH	0.738 ± 0.083
PSHSRSRPPPYL	0.742 ± 0.1
SALEVSPSNGSF	0.598 ± 0.015
SFLPDCLSLFLF	0.612 ± 0.058
QPGRGIAFVCFD	0.735 ± 0.051
LSPSSSLTYLSF	0.724 ± 0.07
TFLYLSGRVVGL	0.651 ± 0.013
GGGNRMRENGRE	0.667 ± 0.026
ERKKKKKERARG	0.767 ± 0.1
ASPLFFHPSAPH	0.6891 ± 0.0046
KTPHSTARNFNR	0.736 ± 0.092
